Results from patent US20090203602A1 (AMERICAN TYPE CULTURE COLLECTION, published 2009).

Experiments:
Test in all cases: cell-based or functional assay
GSK3β (h) = GSK3β (h) (human, UniProt P49841 1-420, limits assumed)
PDK1 (h) = molecular target: T1, PDK1 (h) (human, UniProt O15530 1-556, limits assumed)
T1 sequence (looked up): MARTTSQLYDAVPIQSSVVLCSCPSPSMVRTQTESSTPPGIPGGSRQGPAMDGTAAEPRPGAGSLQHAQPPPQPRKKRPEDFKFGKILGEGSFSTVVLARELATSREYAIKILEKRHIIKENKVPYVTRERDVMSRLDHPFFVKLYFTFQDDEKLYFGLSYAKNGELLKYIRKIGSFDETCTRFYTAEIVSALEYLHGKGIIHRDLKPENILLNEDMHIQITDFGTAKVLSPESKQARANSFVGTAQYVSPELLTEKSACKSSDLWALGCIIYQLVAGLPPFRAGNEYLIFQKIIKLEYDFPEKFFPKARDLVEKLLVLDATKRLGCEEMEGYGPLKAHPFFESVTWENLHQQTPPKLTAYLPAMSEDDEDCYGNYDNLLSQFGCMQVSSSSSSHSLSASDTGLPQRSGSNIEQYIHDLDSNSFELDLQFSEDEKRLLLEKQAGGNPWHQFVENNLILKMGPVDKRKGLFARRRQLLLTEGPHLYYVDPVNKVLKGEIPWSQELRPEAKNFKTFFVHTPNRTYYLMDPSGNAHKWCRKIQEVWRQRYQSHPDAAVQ

MAPK1 (h) = MAPK1 (h) (human, UniProt P28482)
Chain of MAPK1 (h) (P28482 2-360): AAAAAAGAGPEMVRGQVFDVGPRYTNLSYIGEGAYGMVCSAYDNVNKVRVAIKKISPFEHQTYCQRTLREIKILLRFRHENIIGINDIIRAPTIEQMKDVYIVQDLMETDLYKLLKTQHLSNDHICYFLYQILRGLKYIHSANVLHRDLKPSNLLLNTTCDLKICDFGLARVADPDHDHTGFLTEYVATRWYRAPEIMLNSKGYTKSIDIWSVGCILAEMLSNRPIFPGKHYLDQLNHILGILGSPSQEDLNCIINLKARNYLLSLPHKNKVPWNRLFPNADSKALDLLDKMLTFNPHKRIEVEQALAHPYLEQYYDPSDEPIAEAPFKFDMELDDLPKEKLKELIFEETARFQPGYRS

[1] = molecular target: RPS6KB1 (p70S6K) Ribosomal protein S6 kinase, 70 kDa, polypeptide 1 (human, UniProt P23443 1-421, limits assumed)
Chain of RPS6KB1 (p70S6K) Ribosomal protein S6 kinase, 70 kDa, polypeptide 1 (P23443 1-421 limits assumed): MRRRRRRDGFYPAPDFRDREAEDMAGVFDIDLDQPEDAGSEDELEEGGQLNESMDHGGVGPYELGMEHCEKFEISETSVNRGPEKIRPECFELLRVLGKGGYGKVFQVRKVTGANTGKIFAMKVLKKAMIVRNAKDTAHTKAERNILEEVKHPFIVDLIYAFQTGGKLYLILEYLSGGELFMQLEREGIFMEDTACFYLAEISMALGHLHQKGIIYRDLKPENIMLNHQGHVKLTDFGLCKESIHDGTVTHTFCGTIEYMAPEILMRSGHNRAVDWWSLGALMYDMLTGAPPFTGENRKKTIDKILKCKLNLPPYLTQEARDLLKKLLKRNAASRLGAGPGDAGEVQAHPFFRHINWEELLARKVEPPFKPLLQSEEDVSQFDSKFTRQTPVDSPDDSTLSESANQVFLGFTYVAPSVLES

[2] = molecular target: T2, SGK (SGK1) Serum/glucocorticoid regulated kinase (human, UniProt O00141 60-431, limits assumed)
T2 sequence (looked up): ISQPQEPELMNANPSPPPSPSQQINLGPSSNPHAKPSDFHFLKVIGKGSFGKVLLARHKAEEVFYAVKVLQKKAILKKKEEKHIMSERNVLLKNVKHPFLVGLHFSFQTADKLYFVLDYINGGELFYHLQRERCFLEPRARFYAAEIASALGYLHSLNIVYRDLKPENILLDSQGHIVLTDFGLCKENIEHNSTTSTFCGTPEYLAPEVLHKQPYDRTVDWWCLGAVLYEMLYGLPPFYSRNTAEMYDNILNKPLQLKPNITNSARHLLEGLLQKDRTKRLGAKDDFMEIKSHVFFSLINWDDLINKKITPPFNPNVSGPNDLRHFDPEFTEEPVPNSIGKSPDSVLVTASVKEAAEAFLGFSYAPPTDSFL

PKA(h) = PKA(h) (human, UniProt P17612 1-351)
PKBβ (h) = PKBβ (h) (human, UniProt P31751 1-481, limits assumed)
Chain of PKBβ (h) (P31751 whole entry): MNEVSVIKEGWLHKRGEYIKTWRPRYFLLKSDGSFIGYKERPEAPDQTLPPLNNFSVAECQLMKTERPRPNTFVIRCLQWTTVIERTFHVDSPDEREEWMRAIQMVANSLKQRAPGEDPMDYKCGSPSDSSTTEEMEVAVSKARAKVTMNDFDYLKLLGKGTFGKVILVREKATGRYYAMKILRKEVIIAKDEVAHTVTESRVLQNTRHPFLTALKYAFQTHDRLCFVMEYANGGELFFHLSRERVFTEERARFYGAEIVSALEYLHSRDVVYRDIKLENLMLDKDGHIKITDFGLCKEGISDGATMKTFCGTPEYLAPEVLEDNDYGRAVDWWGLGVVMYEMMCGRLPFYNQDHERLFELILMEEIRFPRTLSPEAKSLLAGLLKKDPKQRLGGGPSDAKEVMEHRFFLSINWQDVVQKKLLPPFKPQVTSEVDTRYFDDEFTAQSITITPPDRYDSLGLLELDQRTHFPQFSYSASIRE

IR (h) = IR (h) (human, UniProt P06213 1005-1310, limits assumed)
Chain of IR (h) (P06213 1005-1310 limits assumed): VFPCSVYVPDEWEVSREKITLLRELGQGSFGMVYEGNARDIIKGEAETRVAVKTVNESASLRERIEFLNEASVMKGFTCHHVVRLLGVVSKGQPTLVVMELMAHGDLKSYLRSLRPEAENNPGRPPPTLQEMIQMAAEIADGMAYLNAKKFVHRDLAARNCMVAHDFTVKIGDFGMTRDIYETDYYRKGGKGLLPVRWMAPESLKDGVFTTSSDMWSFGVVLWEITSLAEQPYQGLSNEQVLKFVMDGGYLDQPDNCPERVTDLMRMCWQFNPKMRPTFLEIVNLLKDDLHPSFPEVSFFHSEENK

PKCβII (h) = PKCβII (h) (human, UniProt P05771-2 1-673)
Chain of PKCβII (h) (P05771 other isoform, or with tags, fused parts or gaps limits assumed): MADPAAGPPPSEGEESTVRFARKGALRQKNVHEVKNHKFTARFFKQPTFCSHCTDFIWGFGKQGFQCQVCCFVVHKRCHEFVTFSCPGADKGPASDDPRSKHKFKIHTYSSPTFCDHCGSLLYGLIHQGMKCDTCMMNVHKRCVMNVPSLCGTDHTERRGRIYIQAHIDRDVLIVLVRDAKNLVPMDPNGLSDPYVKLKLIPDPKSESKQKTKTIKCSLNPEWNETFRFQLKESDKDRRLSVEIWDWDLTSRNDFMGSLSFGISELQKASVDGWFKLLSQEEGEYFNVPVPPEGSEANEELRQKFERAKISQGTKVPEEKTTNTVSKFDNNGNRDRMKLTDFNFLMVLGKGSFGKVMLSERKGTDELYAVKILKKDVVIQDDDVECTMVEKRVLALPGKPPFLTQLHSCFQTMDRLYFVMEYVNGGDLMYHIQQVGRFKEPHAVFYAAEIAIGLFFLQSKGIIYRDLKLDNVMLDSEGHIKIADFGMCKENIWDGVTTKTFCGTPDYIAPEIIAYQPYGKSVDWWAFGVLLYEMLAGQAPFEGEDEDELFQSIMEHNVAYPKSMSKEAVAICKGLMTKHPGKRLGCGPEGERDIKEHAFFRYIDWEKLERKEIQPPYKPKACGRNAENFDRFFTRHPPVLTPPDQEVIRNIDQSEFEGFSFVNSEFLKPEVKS

IKKβ(h) = molecular target: T3, IKKβ(h) (human, UniProt O14920 1-756, limits assumed)
T3 sequence (looked up): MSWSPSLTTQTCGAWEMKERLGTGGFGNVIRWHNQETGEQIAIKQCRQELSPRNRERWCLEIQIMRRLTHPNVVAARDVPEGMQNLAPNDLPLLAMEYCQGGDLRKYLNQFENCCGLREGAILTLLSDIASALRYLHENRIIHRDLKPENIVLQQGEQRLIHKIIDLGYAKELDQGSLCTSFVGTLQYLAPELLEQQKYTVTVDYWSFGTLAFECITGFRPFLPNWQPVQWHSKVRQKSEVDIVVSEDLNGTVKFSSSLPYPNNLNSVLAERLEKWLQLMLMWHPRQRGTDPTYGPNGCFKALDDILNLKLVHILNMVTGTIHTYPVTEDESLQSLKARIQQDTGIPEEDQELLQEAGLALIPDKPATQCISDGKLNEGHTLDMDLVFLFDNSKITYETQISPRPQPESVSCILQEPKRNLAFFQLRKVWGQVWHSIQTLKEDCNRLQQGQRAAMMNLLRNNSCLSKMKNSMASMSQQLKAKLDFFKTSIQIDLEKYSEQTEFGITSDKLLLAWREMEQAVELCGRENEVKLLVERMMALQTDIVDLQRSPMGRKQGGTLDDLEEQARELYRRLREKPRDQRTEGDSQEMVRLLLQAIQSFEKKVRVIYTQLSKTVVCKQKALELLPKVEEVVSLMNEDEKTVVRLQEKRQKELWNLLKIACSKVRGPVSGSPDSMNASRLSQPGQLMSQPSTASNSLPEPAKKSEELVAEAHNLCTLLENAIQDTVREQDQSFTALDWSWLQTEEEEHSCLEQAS

MAPK2 (h) = MAPK2 (h) (human, UniProt P28482 1-360, limits assumed)
Chain of MAPK2 (h) (P28482 whole entry): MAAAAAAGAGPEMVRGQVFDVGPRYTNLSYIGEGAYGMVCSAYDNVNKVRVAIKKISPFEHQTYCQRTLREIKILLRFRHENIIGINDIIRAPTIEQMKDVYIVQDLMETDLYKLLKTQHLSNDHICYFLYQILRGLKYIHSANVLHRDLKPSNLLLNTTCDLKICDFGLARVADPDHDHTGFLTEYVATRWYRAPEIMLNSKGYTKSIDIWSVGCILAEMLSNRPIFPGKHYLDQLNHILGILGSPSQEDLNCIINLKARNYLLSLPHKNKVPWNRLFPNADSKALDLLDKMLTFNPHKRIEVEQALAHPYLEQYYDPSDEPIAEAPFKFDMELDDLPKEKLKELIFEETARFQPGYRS

PKCζ (h) = molecular target: T4, PKCζ (h) (human, UniProt Q05513 1-592, limits assumed)
T4 sequence (looked up): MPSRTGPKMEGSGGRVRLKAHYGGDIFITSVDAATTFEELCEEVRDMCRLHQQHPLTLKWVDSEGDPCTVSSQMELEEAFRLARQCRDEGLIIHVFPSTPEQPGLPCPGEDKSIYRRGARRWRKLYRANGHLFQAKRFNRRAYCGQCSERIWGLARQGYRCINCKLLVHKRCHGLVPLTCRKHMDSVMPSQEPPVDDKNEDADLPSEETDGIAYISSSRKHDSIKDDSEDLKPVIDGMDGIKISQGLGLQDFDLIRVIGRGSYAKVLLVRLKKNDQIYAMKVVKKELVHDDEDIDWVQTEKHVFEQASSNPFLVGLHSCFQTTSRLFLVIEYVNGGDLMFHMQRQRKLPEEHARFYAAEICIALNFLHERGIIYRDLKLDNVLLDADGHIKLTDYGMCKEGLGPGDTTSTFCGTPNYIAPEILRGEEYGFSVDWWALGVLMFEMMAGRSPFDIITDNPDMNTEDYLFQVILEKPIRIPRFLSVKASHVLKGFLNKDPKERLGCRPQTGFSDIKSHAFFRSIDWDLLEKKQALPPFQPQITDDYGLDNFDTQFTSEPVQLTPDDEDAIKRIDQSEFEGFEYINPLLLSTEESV

Chain of GSK3β (h) (P49841 whole entry): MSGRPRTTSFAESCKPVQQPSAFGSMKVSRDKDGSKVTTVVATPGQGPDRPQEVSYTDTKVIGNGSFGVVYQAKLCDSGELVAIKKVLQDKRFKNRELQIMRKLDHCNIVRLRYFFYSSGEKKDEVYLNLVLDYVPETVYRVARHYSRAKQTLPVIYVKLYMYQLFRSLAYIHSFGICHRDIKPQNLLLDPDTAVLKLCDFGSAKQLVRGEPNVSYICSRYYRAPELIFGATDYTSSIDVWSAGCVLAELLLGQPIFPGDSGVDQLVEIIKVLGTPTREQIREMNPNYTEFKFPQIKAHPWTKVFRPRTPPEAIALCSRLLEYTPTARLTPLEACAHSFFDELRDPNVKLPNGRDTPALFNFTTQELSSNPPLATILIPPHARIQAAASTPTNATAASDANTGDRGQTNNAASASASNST

B1: D3 peptide (peptide)
peptide: SGRPPMIVWFNRPFLIAVSHTHGQTILFMAKVINPVGA
- D3 at 0.1 µM % activity (GSK3β (h)): 101 % activity
- D3 at 1 µm % activity (GSK3β (h)): 100 % activity
- D3 at 0.1 µM % activity (PDK1 (h)): 98 % activity
- D3 at 1 µm % activity (PDK1 (h)): 108 % activity
- D3 at 0.1 µM % activity (MAPK1 (h)): 86 % activity
- D3 at 1 µm % activity (MAPK1 (h)): 92 % activity
- D3 at 0.1 µM % activity [1]: 73 % activity
- D3 at 1 µm % activity [1]: 22 % activity
- D3 at 0.1 µM % activity [2]: 74 % activity
- D3 at 1 µm % activity [2]: 5 % activity
- D3 at 0.1 µM % activity (PKA(h)): 115 % activity
- D3 at 1 µm % activity (PKA(h)): 105 % activity
- D3 at 0.1 µM % activity (PKBβ (h)): 63 % activity
- D3 at 1 µm % activity (PKBβ (h)): 12 % activity
- D3 at 0.1 µM % activity (IR (h)): 96 % activity
- D3 at 1 µm % activity (IR (h)): 103 % activity
- D3 at 0.1 µM % activity (PKCβII (h)): 101 % activity
- D3 at 1 µm % activity (PKCβII (h)): 103 % activity
- D3 at 0.1 µM % activity (IKKβ(h)): 103 % activity
- D3 at 1 µm % activity (IKKβ(h)): 71 % activity
- D3 at 0.1 µM % activity (MAPK2 (h)): 96 % activity
- D3 at 1 µm % activity (MAPK2 (h)): 96 % activity
- D3 at 0.1 µM % activity (PKCζ (h)): 95 % activity
- D3 at 1 µm % activity (PKCζ (h)): 42 % activity
